This note sets out measurements from article PMC4868757, “PDIP46 (DNA polymerase δ interacting protein 46) is an activating factor for human DNA polymerase δ” (Oncotarget, 2016).

One test concerns the target T1, His-tagged PDIP46 (human, UniProt Q9BY77 1-421).
T1 construct: PDIP46 (SKAR, POLDIP3), human; Expressed in the pTacTac vector with eight histidine residues added at its N-terminus; also called his-PDIP46; source: E. coli BL21DE3 (pLysS), purified (Ni-NTA agarose); not shown: His8, N-terminal, kept
T1 sequence (looked up): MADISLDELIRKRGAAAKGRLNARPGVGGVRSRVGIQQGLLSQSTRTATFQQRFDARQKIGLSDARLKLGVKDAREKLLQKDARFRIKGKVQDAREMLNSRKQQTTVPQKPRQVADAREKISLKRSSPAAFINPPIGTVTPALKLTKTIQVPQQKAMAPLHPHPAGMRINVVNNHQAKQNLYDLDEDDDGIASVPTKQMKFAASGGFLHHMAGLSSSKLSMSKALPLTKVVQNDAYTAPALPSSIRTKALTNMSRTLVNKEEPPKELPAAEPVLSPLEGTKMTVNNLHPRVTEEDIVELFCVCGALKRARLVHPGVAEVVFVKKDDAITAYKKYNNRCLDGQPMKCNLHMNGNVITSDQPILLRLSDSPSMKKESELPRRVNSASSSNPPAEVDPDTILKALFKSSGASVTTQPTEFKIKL
The test can be described thus: pull-down; GST fusion protein incubated with the test protein in 50 mM Tris-HCl pH 7.8, 1 mM EDTA, 150 mM NaCl, 0.1% NP-40, 0.2 mM PMSF, 1 h at 4°C; captured on glutathione beads, washed 8 times; western blot of the test protein. Particulars: both partners purified.

The target of test [1] is DNA polymerase delta (Pol δ4) (Homo sapiens, UniProt P28340). The test can be described thus: polymerase activity stimulation assay.
Test [2] concerns the target T2, His-tagged p50 subunit of Pol δ (human, UniProt P49005 1-469).
T2 construct: p50 subunit of human DNA polymerase δ; Expressed in the PET33b vector; also called his-p50; source: E. coli BL21DE3 (pLysS), purified (Ni-NTA agarose)
In words: pull-down; GST fusion protein incubated with the test protein in 50 mM Tris-HCl pH 7.8, 1 mM EDTA, 150 mM NaCl, 0.1% NP-40, 0.2 mM PMSF, 1 h at 4°C; captured on glutathione beads, washed 8 times; western blot of the test protein. As to conditions: both partners purified. (Immunoblotting shows a protein as a band on a membrane.)

Test [3] addresses T3, Recombinant human DNA polymerase δ holoenzyme (Pol δ4), heterotetramer of p125, p50, p68 and p12 (human, UniProt P28340 1-1107; P49005 1-469; Q15054 1-466; Q9HCU8 1-107).
T3 construct: p125, catalytic subunit of human Pol δ; p50 subunit of human Pol δ; p68 subunit of human Pol δ; p12 subunit of human Pol δ; also called Pol δ heterotetramer; source: insect cells, purified to near homogeneity; copies: + + +
Described as above. Particulars: both partners purified.

The target in another test is T4, Human PCNA, recombinant (human, UniProt P12004 1-261).
T4 construct: PCNA, human; source: E. coli, purified
The test is described as above. Particulars: both partners purified.

T2 sequence (P49005 whole entry, stated change not applied): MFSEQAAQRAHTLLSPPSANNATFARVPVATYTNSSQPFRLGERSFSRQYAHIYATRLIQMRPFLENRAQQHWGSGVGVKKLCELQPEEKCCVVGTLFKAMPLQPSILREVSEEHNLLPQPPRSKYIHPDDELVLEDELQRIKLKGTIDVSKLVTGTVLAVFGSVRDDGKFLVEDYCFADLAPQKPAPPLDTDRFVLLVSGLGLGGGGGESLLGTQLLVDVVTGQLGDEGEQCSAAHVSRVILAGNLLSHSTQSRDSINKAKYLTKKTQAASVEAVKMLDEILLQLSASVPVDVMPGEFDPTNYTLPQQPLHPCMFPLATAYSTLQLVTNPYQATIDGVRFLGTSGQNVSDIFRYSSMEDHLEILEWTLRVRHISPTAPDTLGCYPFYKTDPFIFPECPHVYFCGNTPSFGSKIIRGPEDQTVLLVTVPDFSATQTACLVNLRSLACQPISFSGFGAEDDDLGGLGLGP
T3 sequence (P28340 whole entry, stated change not applied, chain 1 of 4): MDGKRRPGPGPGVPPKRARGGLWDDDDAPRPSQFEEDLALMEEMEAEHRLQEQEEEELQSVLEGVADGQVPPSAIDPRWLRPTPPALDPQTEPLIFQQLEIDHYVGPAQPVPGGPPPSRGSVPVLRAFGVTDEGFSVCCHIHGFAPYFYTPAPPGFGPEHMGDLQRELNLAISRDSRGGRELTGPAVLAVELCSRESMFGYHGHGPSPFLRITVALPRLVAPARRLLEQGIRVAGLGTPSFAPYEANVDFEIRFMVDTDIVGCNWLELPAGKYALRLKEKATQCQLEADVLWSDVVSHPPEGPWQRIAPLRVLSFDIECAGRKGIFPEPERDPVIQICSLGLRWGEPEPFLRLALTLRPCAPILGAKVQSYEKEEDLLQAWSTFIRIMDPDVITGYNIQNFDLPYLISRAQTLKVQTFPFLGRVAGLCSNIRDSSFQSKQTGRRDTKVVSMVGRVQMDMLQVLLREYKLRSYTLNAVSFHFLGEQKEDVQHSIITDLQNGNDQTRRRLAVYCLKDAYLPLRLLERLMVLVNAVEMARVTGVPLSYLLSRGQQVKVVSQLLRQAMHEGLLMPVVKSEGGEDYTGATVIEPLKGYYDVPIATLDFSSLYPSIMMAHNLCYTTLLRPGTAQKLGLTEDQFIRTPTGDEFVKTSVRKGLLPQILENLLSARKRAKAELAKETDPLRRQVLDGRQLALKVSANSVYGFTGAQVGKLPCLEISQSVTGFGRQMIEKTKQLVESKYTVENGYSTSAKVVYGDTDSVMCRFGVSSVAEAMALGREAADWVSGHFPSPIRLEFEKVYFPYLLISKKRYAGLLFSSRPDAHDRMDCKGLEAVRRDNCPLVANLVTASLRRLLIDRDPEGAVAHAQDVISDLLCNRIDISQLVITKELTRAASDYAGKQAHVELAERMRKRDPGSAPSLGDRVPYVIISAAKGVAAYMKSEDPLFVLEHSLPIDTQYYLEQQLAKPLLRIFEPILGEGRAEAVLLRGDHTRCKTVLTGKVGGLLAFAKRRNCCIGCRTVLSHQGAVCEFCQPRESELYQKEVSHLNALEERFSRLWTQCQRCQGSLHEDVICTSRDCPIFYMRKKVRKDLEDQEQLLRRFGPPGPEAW
T3 sequence (P49005 whole entry, stated change not applied, chain 2 of 4): as the sequence (P49005 whole entry, stated change not applied) above
T3 sequence (Q15054 whole entry, stated change not applied, chain 3 of 4): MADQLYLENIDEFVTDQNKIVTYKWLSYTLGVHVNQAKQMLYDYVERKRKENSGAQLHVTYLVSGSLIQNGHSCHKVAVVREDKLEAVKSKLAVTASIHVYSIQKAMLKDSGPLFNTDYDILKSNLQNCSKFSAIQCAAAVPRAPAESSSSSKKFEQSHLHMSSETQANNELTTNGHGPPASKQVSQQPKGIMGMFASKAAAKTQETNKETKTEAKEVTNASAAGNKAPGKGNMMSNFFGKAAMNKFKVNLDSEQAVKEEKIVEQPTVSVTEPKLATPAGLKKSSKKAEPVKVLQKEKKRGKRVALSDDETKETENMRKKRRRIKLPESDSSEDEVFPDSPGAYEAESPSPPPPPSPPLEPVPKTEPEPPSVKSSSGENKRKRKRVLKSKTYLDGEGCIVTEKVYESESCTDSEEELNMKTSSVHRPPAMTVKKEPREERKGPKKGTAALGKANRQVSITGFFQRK
T3 sequence (Q9HCU8 whole entry, stated change not applied, chain 4 of 4): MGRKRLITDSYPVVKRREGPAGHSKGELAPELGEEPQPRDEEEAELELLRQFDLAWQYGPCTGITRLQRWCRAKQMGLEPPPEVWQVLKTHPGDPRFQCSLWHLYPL
Chain of DNA polymerase delta (Pol δ4) (P28340 whole entry, stated change not applied, chain 1 of 4): as the sequence (P28340 whole entry, stated change not applied, chain 1 of 4) above
Chain of DNA polymerase delta (Pol δ4) (P49005 whole entry, stated change not applied, chain 2 of 4, further chain): as the sequence (P49005 whole entry, stated change not applied) above
Chain of DNA polymerase delta (Pol δ4) (Q15054 2-466, stated change not applied, chain 3 of 4, further chain): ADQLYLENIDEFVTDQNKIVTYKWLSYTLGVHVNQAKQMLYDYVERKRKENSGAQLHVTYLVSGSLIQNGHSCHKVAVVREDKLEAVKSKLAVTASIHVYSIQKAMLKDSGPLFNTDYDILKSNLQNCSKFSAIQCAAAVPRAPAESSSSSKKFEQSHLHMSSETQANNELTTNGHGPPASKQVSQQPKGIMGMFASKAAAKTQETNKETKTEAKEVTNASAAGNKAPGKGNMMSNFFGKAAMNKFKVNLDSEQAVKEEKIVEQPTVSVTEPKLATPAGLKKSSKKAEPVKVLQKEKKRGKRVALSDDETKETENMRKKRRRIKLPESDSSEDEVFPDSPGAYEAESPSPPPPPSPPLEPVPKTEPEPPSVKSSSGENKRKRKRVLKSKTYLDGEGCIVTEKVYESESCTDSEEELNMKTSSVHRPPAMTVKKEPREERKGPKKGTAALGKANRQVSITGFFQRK
Chain of DNA polymerase delta (Pol δ4) (Q9HCU8 whole entry, stated change not applied, chain 4 of 4, further chain): as the sequence (Q9HCU8 whole entry, stated change not applied, chain 4 of 4) above
T4 sequence (P12004 whole entry): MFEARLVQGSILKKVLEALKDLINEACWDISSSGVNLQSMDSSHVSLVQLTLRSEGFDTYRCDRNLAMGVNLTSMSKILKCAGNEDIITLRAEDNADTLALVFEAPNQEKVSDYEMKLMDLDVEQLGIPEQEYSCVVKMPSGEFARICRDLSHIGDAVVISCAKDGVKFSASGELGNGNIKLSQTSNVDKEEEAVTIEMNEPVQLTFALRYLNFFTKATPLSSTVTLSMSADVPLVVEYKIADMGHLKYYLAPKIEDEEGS

B1: GST-p50 deletion construct containing residues 252-400 of p50 (domain or fragment, human, UniProt P49005 252-400, looked up)
chain: TQSRDSINKAKYLTKKTQAASVEAVKMLDEILLQLSASVPVDVMPGEFDPTNYTLPQQPLHPCMFPLATAYSTLQLVTNPYQATIDGVRFLGTSGQNVSDIFRYSSMEDHLEILEWTLRVRHISPTAPDTLGCYPFYKTDPFIFPECPH
notes: Subcloned in pGEX-5X-3; source: E. coli BL21DE3 (pLysS), purified (glutathione beads)
Regarding B1, the binding result in the test with His-tagged PDIP46 is on record as “binds”.

B2: PDIP46 (protein)
chain: ADISLDELIRKRGAAAKGRLNARPGVGGVRSRVGIQQGLLSQSTRTATFQQRFDARQKIGLSDARLKLGVKDAREKLLQKDARFRIKGKVQDAREMLNSRKQQTTVPQKPRQVADAREKISLKRSSPAAFINPPIGTVTPALKLTKTIQVPQQKAMAPLHPHPAGMRINVVNNHQAKQNLYDLDEDDDGIASVPTKQMKFAASGGFLHHMAGLSSSKLSMSKALPLTKVVQNDAYTAPALPSSIRTKALTNMSRTLVNKEEPPKELPAAEPVLSPLEGTKMTVNNLHPRVTEEDIVELFCVCGALKRARLVHPGVAEVVFVKKDDAITAYKKYNNRCLDGQPMKCNLHMNGNVITSDQPILLRLSDSPSMKKESELPRRVNSASSSNPPAEVDPDTILKALFKSSGASVTTQPTEFKIKL
As to B2, in test [1], the affinity, expressed as Kd, was 34 nM.

B3: GST-PDIP46 (DNA polymerase δ interacting protein 46), wild type, full length (natural protein, human, UniProt Q9BY77 1-421, looked up)
chain: MADISLDELIRKRGAAAKGRLNARPGVGGVRSRVGIQQGLLSQSTRTATFQQRFDARQKIGLSDARLKLGVKDAREKLLQKDARFRIKGKVQDAREMLNSRKQQTTVPQKPRQVADAREKISLKRSSPAAFINPPIGTVTPALKLTKTIQVPQQKAMAPLHPHPAGMRINVVNNHQAKQNLYDLDEDDDGIASVPTKQMKFAASGGFLHHMAGLSSSKLSMSKALPLTKVVQNDAYTAPALPSSIRTKALTNMSRTLVNKEEPPKELPAAEPVLSPLEGTKMTVNNLHPRVTEEDIVELFCVCGALKRARLVHPGVAEVVFVKKDDAITAYKKYNNRCLDGQPMKCNLHMNGNVITSDQPILLRLSDSPSMKKESELPRRVNSASSSNPPAEVDPDTILKALFKSSGASVTTQPTEFKIKL
notes: PDIP46 (SKAR, POLDIP3), human, full-length; Subcloned in pGEX-5X-3; The functional rows used untagged PDIP46 (his-Sumo fusion, tags removed by Sumo protease, Mono S), not this GST fusion; also called GST-p46; SKAR; source: E. coli BL21DE3 (pLysS), purified (glutathione beads)
As to B3, the binding result in test [2] and in test [3] was “binds” each time.

B4: GST-PDIP46 N-terminal fragment (residues 1-141) (domain or fragment, human, UniProt Q9BY77 1-141, looked up)
chain: MADISLDELIRKRGAAAKGRLNARPGVGGVRSRVGIQQGLLSQSTRTATFQQRFDARQKIGLSDARLKLGVKDAREKLLQKDARFRIKGKVQDAREMLNSRKQQTTVPQKPRQVADAREKISLKRSSPAAFINPPIGTVTP
notes: as for B1
With B4, the binding result in the test with Human PCNA, recombinant is on record as “binds”.
